Assay: soluble on expression in E. coli; label from the status in PepcDB or PDB records

**Q.** For “MVKKVLLINGPNLNLLGTREPEKYGTTSLSDIEQAAIEQAKLKNNDSEVLVFQSNTEGFIIDRIHEAKRQGVGFVVINAGAYTHTSVGIRDALLGTAIPFIEVHITNVHQREPFRHQSYLSDKAVAVICGLGVYGYTAAIEYALNY”, which “soluble on expression in E. coli” value is on record?
**A.** Its value is “soluble”.

**Q.** For “MSNYTVKIKNSAKSDLKKIKHSYLKKSFLEIVETLKNDPYKITQSFEKLEPKYLERYSRRINHQHRVVYTVDDRNKEVLILSAWSHYD”, which “soluble on expression in E. coli” value is on record?
**A.** Its value is “not soluble”.

**Q.** With “MPEDLALESNPSDHPRASTIFLSKSQTDVREKRKSNHLNHCDLSNILPHKEQREKVPEEYFKHDPEHKFIYRFVRTLFSAAQLTAECAIVTLVYLERLLTYAEIDICPTNWKRIVLGAILLASKVWDDQAVWNVDYCQILKDITVEDMNEMERHFLELLQFNINVPASVYAKYYFDLRSLADDNNLNFLFAPLSKERAQNLEAISRLCEDKDLCRAAMRRSFSADNFIGIQRSKAILS” as the sequence, how does the “soluble on expression in E. coli” value read?
**A.** Its value is “not soluble”.

**Q.** Which “soluble on expression in E. coli” value does the source give for “MELDVFAGQEKSELSMIEVARAILETRGRDKEMYFNDLVNEIQNYLEKSDADIRSSLPFFYSDLNTDGSFIPLGDNKWGLRSWYAIDEIDEEVITLEDIDENAPKRKNKKVNAFMDGDEDAIDYNDDDPEDENFTPSSAILEYDNDNEDDENAEVESYDSELNEIIPDDDLDDVELSEEDDDDDDDYEDETND” here?
**A.** Its value is “not soluble”.

**Q.** For “MAHHHHHHMPHEDHKKYRVQREDLPAMPHFSDFNDPRFCGTTNKQKNGILAYYQWLHCIGNWGEEHSMCKKMRWYVERMMHETWLEKWEEKRALGHFDHTVLYGVKPWKEFEPLYQPVKKNRKGAYEYWLDRDFEPLYDVDAADWRERAPILHDMFVLGKKPVSE”, which “soluble on expression in E. coli” value is on record?
**A.** Its value is “soluble”.

**Q.** For “MLKKNDIVEVEIVDLTHEGAGVAKVDGLVFFVENALPSEKILMRVLKVNKKIGFGKVEKYLVQSPHRNQDLDLAYLRSGIADLGHLSYPEQLKFKTKQVKDSLYKIAGIADVEVAETLGMEHPVKYRNKAQVPVRRVNGVLETGFFRKNSHNLMPLEDFFIQDPVIDQVVVALRDLLRRFDLKPYDEKEQSGLIRNLVVRRGHYSGQIMVVLVTTRPKVFRVDQLIEQVIKQFPEIVSVMQNINDQNTNAIFGKEWRTLYGQDYITDQMLGNDFQIAGPAFYQVNTEMAEKLYQTAIDFAELKKDDVIIDAYSGIGTIGLSVAKHVKEVYGVELIPEAVENSQKNASLNKITNAHYVCDTAENAMKKWLKEGIQPTVILVDPPRKGLTESFIKASAQTGADRIAYISCNVATMARDIKLYQELGYELKKVQPVDLFPQTHHVETVALLSKLDVDKHISVEIELDEMDLTSAESKATYAQIKEYVWNKFELKVSTLYIAQIKKKCGIELREHYNKSKKDKQIIPQCTPEKEEAIMDALRHFKMI”, which “soluble on expression in E. coli” value is on record?
**A.** Its value is “not soluble”.

**Q.** With “MSLQSADESTFDRIRRTKKLRIGAVAGGAPYYNKDLATGQWKGFYIDISKALADELECQLEITETTWGNSVLDLQANKIDIFFGLNPTPKRALVVDFSVPVFSNAFTMLTRKDFAPKTWAELNDPNVKIAVDVGSSHDQVVSRLCPKAQIVRLKTADEATMALVSGRVDAQCIILMLALTVRKKNPNVGQLLVPTPVFSTTSNAGFRRENDKTWRDYVNTWIEYNKGLGFIRSAIVTNMELVGVTEADMPAGIQEGHHHHHH” as the sequence, how does the “soluble on expression in E. coli” value read?
**A.** Its value is “soluble”.

**Q.** With “MPPEIMRFKERLEEAMNGESSRAFAAKCGLSDGVIRNYLSGKTYPSLDRLAQIAYATGRPIEWFIQSQSMPMVEHKNNQENKNSQPDRSTLKTKLIAIVELLEDKELHSAIELFRKKGFEALMPEIFSSDDSIQADLQGISQQTLQTAKMLESLPTDTRKKILSKYGIYEQEGLVAPSQEPQDVKKAV” as the sequence, how does the “soluble on expression in E. coli” value read?
**A.** Its value is “not soluble”.

**Q.** For “DIPFYEQVKASAGHGFLCECKNVTYISLPKALFKYFNVKDLLAITAHGDSMEPVLNDDALLVIDSSKKQIRDGSMYVIRQGDLIRVKLISLDNNGLKLKSYNQSYHDEIYEDYQDVEILGKVIWYSSLCL”, which “soluble on expression in E. coli” value is on record?
**A.** Its value is “not soluble”.

**Q.** Which “soluble on expression in E. coli” value does the source give for “MGHHHHHHSHMETIGAKALEDFADNIKNDPDKEYNMPKDGTVHELTSNAILFLQQLLDFQETAGAMLASQETSSSATSYSSEFSKRLLSTYICKVLGNLQLNLLSKSKVYEDPALSAIFLHNNYNYILKSLEKSELIQLVAVTQKTAERSYREHIEQQIQTYQRSWLKVTDYIAEKNLPVFQPGVKLRDKERQIIKERFKGFNDGLEELCKIQKAWAIPDTEQRDRIRQAQKTIVKETYGAFLQKFGSVPFTKNPEKYIKYGVEQVGDMIDRLFDTSA” here?
**A.** The value was “not soluble”.

**Q.** For “MAHHHHHHMSVPKAALMQIFDLYDTDRAGWIPTKRIPYVLRTCGMISTQTEMETLLHDHFASRDTVTRSGFQKFLEQKDILKAEDFSSEKELATAFQVFDSRESGALTSDEVLTILTRMNEKIDVDAYHRVMDGLELNEQGMVEFAKLAAHMLRSANEYKLTVRQVLEELAE”, which “soluble on expression in E. coli” value is on record?
**A.** The value was “soluble”.

**Q.** Which “soluble on expression in E. coli” value does the source give for “ILQTTVDGNSTAISNLKSDISSNGLAITDLQDRVKSLESTASHGLSFSPPLSVADGVVSLDMDPYFCSQRVSLTSYSAEAQLMQFRWMARGTNGSSDTIDMTVNAHCHGRRTDYMMSSTGNLTVTSNVVLLTFDLSDITHIPSDLARLVPSAGFQAASFPVDVSFTRDSATHAYQAYGVYSSSRVFTITFPTGGDGTANIRSLTVRTGIDT” here?
**A.** The value was “soluble”.

**Q.** With “MSVASLFEKFFLSASFIDKAPRTQKDYLGYKKDLLIAFGKMDINKVEPKHVRMFMDKKAVKSGISQANRHKSALQSIFSWAYERGKIKVNPCVGVKKFTEKLEHHHHHH” as the sequence, how does the “soluble on expression in E. coli” value read?
**A.** The value was “not soluble”.

**Q.** Which “soluble on expression in E. coli” value does the source give for “MWRVVFDCEEAVRWLRQAKHTLESIRVDYEGGFYSWACFKANQAAEYSIKAVLRAAGLESFGHDLMALWRRARSLCQPLQEMEECIAVLNKLYLPPRYPDAWPGGAAPFENYTRRDAEEALECASRVYRAVEECLGEECEDS” here?
**A.** Its value is “soluble”.

**Q.** Which “soluble on expression in E. coli” value does the source give for “SMSDESVYKVLLLGAPGVGKSALARIFGGVEDGPEAEAAGHTYDRSIVVDGEEASLMVYDIWEQDGGRWLPGHCMAMGDAYVIVYSVTDKGSFEKASELRVQLRRARQTDDVPIILVGNKSDLVRSREVSVDEGRACAVVFDCKFIETSAALHHNVQALFEGVVRQIRLRRDSKEA” here?
**A.** Its value is “soluble”.

**Q.** With “DSKKIVGVFYKANEYATKNPNFLGCVENALGIRDWLESQGHQYIVTDDKEGPDCELEKHIPDLHVLISTPFHPAYVTAERIKKAKNLKLLLTAGIGSDHIDLQAAAAAGLTVAEVTGSNVVSVAEDELMRILILMRNFVPGYNQVVKGEWNVAGIAYRAYDLEGKTIGTVGAGRIGKLLLQRLKPFGCNLLYHDRLQMAPELEKETGAKFVEDLNEMLPKCDVIVINMPLTEKTRGMFNKELIGKLKKGVLIVNNARGAIMERQAVVDAVESGHIGGYSGDVWDPQPAPKDHPWRYMPNQAMTPHTSGTTIDAQLRYAAGTKDMLERYFKGEDFPTENYIVKDGELAPQYR” as the sequence, how does the “soluble on expression in E. coli” value read?
**A.** The value was “soluble”.

**Q.** With “MGSDKIHHHHHHMTKEQNSTENLDFQSPSDDTNLEGDFTADIVALAAKVEVQIQKIAERQRQISAKVQIPQPVEKIWKVLTDYEALPDFLPNLAKSRLIEHPNGGIRLEQVGSQRLLNFNFSARVVLDLEECFPREINFRMVEGDFKGFSGSWCLEPYSLGEYIGTNLCYTIQVWPKLTMPVGIIENRLSKDLRLNLVAIHQRVEELANKQPYI” as the sequence, how does the “soluble on expression in E. coli” value read?
**A.** The value was “not soluble”.

**Q.** Which “soluble on expression in E. coli” value does the source give for “MRIHRRIKIKQKSVRIFIFDTKHRINDTKRQEDDEPHGLSALHFASRRPTCCACWMRRKKESTTTKVCVQDDCTTCSCTSASRCSRCSPCCSGCCSCTS” here?
**A.** Its value is “not soluble”.

**Q.** Which “soluble on expression in E. coli” value does the source give for “MASQSQGIQQLLQAEKRAKDKLEEAKKRKNKRLRQAKEEATADIDQYRLKREADFRRIQTSVMGSQGNLAVKIEEQTVEKIQFYSSSYNKYKEGVLKELLDLAYNIKPELHTNYKYKI” here?
**A.** Its value is “not soluble”.

**Q.** Which “soluble on expression in E. coli” value does the source give for “MERDGCFGNCWLRRWEKSDMNRKGFGGHRDAKQLSRTKNRFARLDPDTQSRYEDDDEPAVPVRASLTSASSRGRGGSSRGFGQSAASIANTGVRNADIVYKCRATGAAKKVDAKWLIKQLNQIIENFKPLLWTDNARGDFEWYVRDEDTASTIRANNRRVVHKESGTRVEFYTSKVPAPWMKLKREEIEIIHRVVDKRHNAENRVLDLSNFHEDEEFKAKDMMMNLTKGNVMLTVLDHIDDKYGNIVALSLSNNRIRHLDYASALVSIAKFVMELDLSHNHISTEKELEKFAGLPVERFFFEGNPVVESFTQRAAYISYIHQSFPRCNMLDGVEVQPLVVGPDLDIHDAMPFRAGYYPNPQIRVLVEQFVTSYFDFYDGPDGQRTRRNLHNAYDADASTFSLTIEHLRGSSHARHHNDECFAQYAGVSHNVLKQERFARHRASRSARGAMDIAVALSKLPTSSHMRDTFIVDVFLQSNDLLGFTVQGLFCDGDLTQTPSPSFFSRSFLVSPRENDSVAVISDQLFITVASLDRLEKFKKLYDQSIANGAAVEQVSAVQIAQIGVNGMGFDGAPALPIREEMIKAMCQFSGMIPPFSEKCLADCAWNFDFACQKFNEIKSSVPAEAFAH” here?
**A.** Its value is “not soluble”.

**Q.** For “ADTRIGVTIYKYDDNFMSVVRKAIEKDGKSAPDVQLLMNDSQNDQSKQNDQIDVLLAKGVKALAINLVDPAAAGTVIEKARGQNVPVVFFNKEPSRKALDSYDKAYYVGTDSKESGVIQGDLIAKHWQANQGWDLNKDGKIQYVLLKGEPGHPDAEARTTYVVKELNDKGIQTEQLALDTAMWDTAQAKDKMDAWLSGPNANKIEVVIANNDAMAMGAVEALKAHNKSSIPVFGVDALPEALALVKSGAMAGTVLNDANNQAKATFDLAKNLAEGKGAADGTSWKIENKIVRVPYVGVDKDNLSEFTQK”, which “soluble on expression in E. coli” value is on record?
**A.** Its value is “soluble”.

**Q.** For “MGSDKIHHHHHHQSFTPGEIWPDNHQVHINAHGGGILYENGTYYWFGEHKTEGEAGNLANVGVHCYSSDDLYHWKDCGIALSVIENDPGHPISKGCILERPKVIYNPLTKKYVMWFHLEPKGAGYSGALSGIALSDRVTGPYTFLKAVRPNAGSWPINVLPIHKTTRRPSAEEERQCTGGSLPAHPDSLNILGRDMEQGQMARDMNLFVDDDGKAYHIYSSEENSTLHIAELDPTYTGYTGKYIRVFINRFMEAPAMFKKDGNYYLIMSGCSGWNPNAARSAIASSIWGEWKELGNPCIGQDADLTFHSQSTYILPVQGKKNQFIYMGDRWTPQNAIDGRYIWLPIHFEGPKPIIEWKDSWTLD”, which “soluble on expression in E. coli” value is on record?
**A.** The value was “not soluble”.

**Q.** Which “soluble on expression in E. coli” value does the source give for “MQKLIMGNWKMNGNSTSIKELCSGISQVQYDTSRVAIAVFPSSVYVKEVISQLPEKVGVGLQNITFYDDGAYTGEISARMLEDIGCDYLLIGHSERRSLFAESDEDVFKKLNKIIDTTITPVVCIGESLDDRQSGKLKQVLATQLSLILENLSVEQLAKVVIAYEPVWAIGTGVVASLEQIQETHQFIRSLLAKVDERLAKNIKIVYGGSLKAENAKDILSLPDVDGGLIGGASLKAAEFNEIINQANKICTE” here?
**A.** Its value is “not soluble”.

**Q.** Which “soluble on expression in E. coli” value does the source give for “MKPAIKRACLLGTALFSLCASAAQAAGVLVGTWDLRGNGQLAAVYRDGANLQVVEGGSTRNYSFGNVVWSVFGATDTDGQPGAEILVKAGPDLVIVSHASTTQRKYPVGNVSWAIMRATDVDNVAGDEVILSIGNGVRTVFDRTRTQRDATFSYNGTWGLFDVADVDGAPGKELVLNMGNGVKVIDPRTSGAKDFTFSGYHALAQIADLDGQPGAEIIGRTSTGIYVISNASSRKEYSIGASAWALYGGTADTDGKPGNELIVVMQGKVRVIHHASGASSDYRIGDVNYSIDSVADMDGQPGAEILVRDANGKLFVINDRTGKVSS” here?
**A.** Its value is “not soluble”.

**Q.** For “MGHHHHHHENLYFQSHLYFQSHINEQEREIEKLKRQMAEYGAIIKSLQFRQNSLEDTFIPDLTPKVEPSVNPTGCLLGSNAVHLMRDIKKECDYLGIPDPVPATKPTTQAQDDSQKKAKRSCFGRLFTGPFRRGTSAMKTADEYEKDDRLEELYAQLERDPDP”, which “soluble on expression in E. coli” value is on record?
**A.** The value was “not soluble”.

From the DeepSol protein solubility set
